Results as given in patent publication US20080248046A1 (Human Genome Sciences, published 2008).

B1: FADD (other, UniProt Q13158 1-208, looked up)
chain: MDPFLVLLHSVSSSLSSSELTELKFLCLGRVGKRKLERVQSGLDLFSMLLEQNDLEPGHTELLRELLASLRRHDLLRRVDDFEAGAAAGAAPGEEDLCAAFNVICDNVGKDWRRLARQLKVSDTKIDSIEDRYPRNLTERVRESLRIWKNTEKENATVAHLVGALRSCQMNLVADLVQEVQQARDLQNRSGAMSPMSWNSDASTSEAS
notes: also called FADD/MORT1
B2: myc-tagged TRADD (other, UniProt Q15628 1-312, looked up)
chain: MAAGQNGHEEWVGSAYLFVESSLDKVVLSDAYAHPQQKVAVYRALQAALAESGGSPDVLQMLKIHRSDPQLIVQLRFCGRQPCGRFLRAYREGALRAALQRSLAAALAQHSVPLQLELRAGAERLDALLADEERCLSCILAQQPDRLRDEELAELEDALRNLKCGSGARGGDGEVASAPLQPPVPSLSEVKPPPPPPPAQTFLFQGQPVVNRPLSLKDQQTFARSVGLKWRKVGRSLQRGCRALRDPALDSLAYEYEREGLYEQAFQLLRRFVQAEGRRATLQRLVEALEENELTSLAEDLLGLTDPNGGLA
notes: also called myc-TRADD

Key:
[1] = target: T1, DR5 expressed from an expression construct in 293 cells (immunoprecipitated with Flag M2 antibody affinity … (human, UniProt O14763 52-440)); experiment: co-transfection of 293 cells, Flag M2 immunoprecipitation, immunoblot with polyclonal antibody to FADD
T1 construct: The text says only 'the indicated expression constructs'; also called Death Domain Containing Receptor 5
From the text: (§1) 293 cells were co-transfected with the indicated expression constructs using calcium phosphate precipitation.

[2] = target: T1, DR5 expressed from an expression …; experiment: co-transfection of 293 cells, Flag M2 immunoprecipitation, immunoblot with HRP-conjugated antibody to myc
From the text: as §1

| binding result [1] | binding result [2] | Binder |
| --- | --- | --- |
| no binding | – | B1 |
| – | no binding | B2 |
